Assay results from article PMC4564863.

T1: InbR (Mycobacterium tuberculosis H37Rv, UniProt L7N6A2 1-241)
T1 sequence: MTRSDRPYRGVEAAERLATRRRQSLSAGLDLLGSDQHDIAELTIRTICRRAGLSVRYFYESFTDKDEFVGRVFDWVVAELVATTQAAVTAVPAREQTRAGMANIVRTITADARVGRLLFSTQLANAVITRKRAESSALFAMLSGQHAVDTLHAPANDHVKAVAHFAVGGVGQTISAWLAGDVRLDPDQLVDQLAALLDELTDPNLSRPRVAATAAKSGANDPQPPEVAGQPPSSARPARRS

B1: Rv0275cp1 (dsDNA)
DNA 1: TGCCGCTAATTATGGAAACACCTGTATCCTGATATTGGCCGG
DNA 2: CCGGCCAATATCAGGATACAGGTGTTTCCATAATTAGCGGCA
B2: Rv0275cp4 (dsDNA)
DNA 1: TGCCGCTAATTATTTATTTGCCGTGGGAATGATATTGGCCGG
DNA 2: CCGGCCAATATCATTCCCACGGCAAATAAATAATTAGCGGCA

What was measured:
InbR (Rv0275c) = InbR (Rv0275c) (Mycobacterium tuberculosis, UniProt L7N6A2); assay: biochemical
InbR = molecular target: T1, InbR; assay: EMSA; 0.25-2 uM InbR; conditions: protein: recombinant; tags: His6 (pET28a, N-terminal); label: FITC

Row | Molecule | Kd (InbR (Rv0275c)) | binding result (InbR)
1 | NNC(=O)c1ccncc1 [INH, Isoniazid] | 720 nM | 
2 | B1 |  | binds
3 | B2 |  | no binding
